This is an account of results in PMC10350915, “Development of a New Class of CXCR4-Targeting Radioligands Based on the Endogenous Antagonist EPI-X4 for Oncological Applications” (Journal of Medicinal Chemistry, 2023).

The target in series [1] is T1, CXCR4 (Homo sapiens, UniProt P61073).
T1 construct: Jurkat cells, which are naturally expressing high levels of CXCR4; host or cells: Jurkat, clone E6-1
Put plainly: Antibody-competition assay (anti-CXCR4 clone 12G5) on Ghost-CXCR4 cells. The class given is binding. As to conditions: competition with CXCR4 antibody clone 12G5, Ghost-CXCR4 cells, 4 °C, 2 h; mean ± SEM. The protocol: (§1) Binding of the DOTA-conjugated EPI-X4 derivatives to CXCR4 was assessed by an antibody-competition assay[26] using Ghost cells stably transfected with CXCR4, as well as on Jurkat cells, which are naturally expressing high levels of CXCR4. […] The buffer was removed and plates were precooled at 4 °C. Ligands were serially diluted in PBS. The antibody (clone 12G5, Allophycocyanin labeled, BD Pharmingen #555976) was diluted in PBS containing 1% FBS. The antibody was used at a fixed concentration close to its KD. 15 μL of compound and immediately afterward 15 μL of the antibody were added to the cells. Plates were incubated at 4 °C in the dark for 2 h allowing to establish an equilibrium binding. Cells were then washed twice with PBS containing 1% FBS and fixed with 2% paraformaldehyde. Antibody binding was analyzed by flow cytometry (FACS CytoFLEX; Beckman Coulter).

The target of series [2] is T1, CXCR4. Briefly: Antibody-competition assay (anti-CXCR4 clone 12G5) on Jurkat cells. The class given is binding. As to conditions: competition with CXCR4 antibody clone 12G5, Jurkat cells, 4 °C, 2 h; mean ± SEM. The protocol:
as §1

Series [3] has as its system Jurkat xenografts. In kind it is in vivo, mouse. The conditions noted are these: 1 h p.i., SPECT/CT or PET/CT. The protocol:
The ability of the ^177Lu ligands to target CXCR4 in vivo was assessed by SPECT/CT imaging in Jurkat xenografts. […] 1 h after injection, the remaining amount of radioligand in the body (and vice versa, the washout) was quantified by measuring the total body activity (mouse) in a dose calibrator. The % of the radioligand remaining in the body after 1 h is reported in Figure 6A as % of the remaining activity in reference to the injected activity (100%).
Figure 6 SPECT/CT images as maximum intensity projections (MIPs) of Jurkat tumor-bearing mice at 1 h p.i. of ^177Lu-labeled ligands (200 pmol, ∼15 MBq). […] (B) Same SPECT/CT images of ^177Lu-1, ^177Lu-2, ^177Lu-5, and ^177Lu-6, adapted in a lower scale. T: tumor, L: liver, and K: kidneys. […] TEXT PRINTED IN THE PICTURE: (A) ^177Lu-1: Remaining Activity (% injected): 6 % | (A) ^177Lu-2: Remaining Activity (% injected): 7 % | (A) ^177Lu-5: Remaining Activity (% injected): 7 % | (A) ^177Lu-6: Remaining Activity (% injected): 8 % | (A) ^177Lu-7: Remaining Activity (% injected): 55 % | (A) ^177Lu-9: Remaining Activity (% injected): 94 %
(§2) The experimental protocol involving animals was approved by the Veterinary Office (Department of Health) of the Cantonal Basel-Stadt (Approval No. 30515) in accordance with the Swiss regulations for animal treatment. Female athymic nude-Foxn1^nu/Foxn1^+ mice (Envigo, The Netherlands), 4–6 weeks old, were injected subcutaneously with 10^7 Jurkat cells in a 200 μL (1:1) mixture of PBS and Matrigel (CorningMatrigelMembrane matrix, Fischer Scientific, Germany) on the right shoulder. The tumors were allowed to grow for 3–4 weeks before commencement of the experiments.
Nude mice bearing Jurkat xenografts were intravenously injected via the tail vein with ∼15 MBq (200 pmol) of the ^177Lu ligands and 8 MBq (200 pmol) of ^68Ga-7 were euthanized 1 h post injection (p.i.). The radioactivity in the syringe before and after injection was measured followed by measuring the amount of radioactivity remaining in the sacrificed mice. […]

For series [4], the system named is Jurkat xenografts. Briefly: in vivo. As to conditions: female, athymic nude-Foxn1^nu/Foxn1^+, mouse, iv, 200 pmol, 1 h. The protocol:
Quantification of the total body distribution of ^177Lu-7 and ^68Ga-7 was performed in Jurkat xenografted mice after intravenous injection of 100 μL, 200 pmol, with […], respectively (n = 5). The mice were sacrificed at 1 h p.i. ^177Lu-7 and ^68Ga-7 accumulated mainly in the kidneys (83.1 ± 25.5 and 75.6 ± 30.3%IA/g, respectively, p = 0.59), liver (5.19 ± 1.08 and 4.08 ± 1.05%IA/g, respectively, p = 0.07) and tumor (2.25 ± 0.43 and 2.24 ± 0.57%IA/g, respectively, p = 0.97), as already seen in the SPECT/CT and PET/CT images (Figures 6 and 7). Uptake in the tumor was lower than for the kidneys and liver but higher as in all other tissues investigated. […] The uptake seen in the liver might be attributed, at least partially, to the fact that CXCR4 is constitutively expressed in the sinusoidal endothelial cells of the murine liver[38] or could be related to another yet-unknown mechanism previously reported for other CXCR4-targeting probes.[11],[39] Regretfully, there are no direct measurements available for the affinity of ^177Lu-7 with the murine CXCR4 (mCXCR4). This is relevant for assessing its total body distribution. However, we have shown that EPI-X4 and EPI-X4 derivatives are active in mouse models of inflammatory diseases[22],[25] and cancer.[40] More specifically, EPI-X4 derivatives such as JM#21 reduced immune cell influx in lungs of mice suffering from allergic asthma or reduced skin inflammation in a murine model of atopic dermatitis upon topical administration. […] Thus, we speculate that the DOTA conjugate of JM#173 (ligand-7) also cross-reacts to the mCXCR4. […] Last, but not the least, the uptake in the kidneys was predominant, and given the highly hydrophilic character of ^177Lu-7, is attributed, at least partially, to its excretion via this path.
as §2
Quantitative biodistribution studies of ^177Lu-7 (100 μL, 200 pmol, 0.8–1 MBq) and ^68Ga-7 (100 μL, 200 pmol, 2–3 MBq) were performed after intravenous injection of the radioligand via the tail vein on Jurkat xenografts. […] 1 h after injection of the radioligand, mice were sacrificed, organs of interest and blood were collected, rinsed of excess blood, blotted dry, weighed, and counted in a γ-counter. The samples were counted against a suitable diluted aliquot of the injected solution as the standard and the results are expressed as percentage injected activity per gram of tissue (%IA/g). Statistical analysis between selected organs was performed by Welch’s t-test and p values <0.05 were considered statistically significant.

Square brackets hold non-standard residues; d marks the D form. Peptide text beside a SMILES is read from it. * marks the point of attachment. DOTA = O=C(O)CN1CCN(CC(=O)O)CCN(CC(=O)*)CCN(CC(=O)O)CC1; Palmitoyl = CCCCCCCCCCCCCCCC(=O)*

T1 sequence (P61073 whole entry): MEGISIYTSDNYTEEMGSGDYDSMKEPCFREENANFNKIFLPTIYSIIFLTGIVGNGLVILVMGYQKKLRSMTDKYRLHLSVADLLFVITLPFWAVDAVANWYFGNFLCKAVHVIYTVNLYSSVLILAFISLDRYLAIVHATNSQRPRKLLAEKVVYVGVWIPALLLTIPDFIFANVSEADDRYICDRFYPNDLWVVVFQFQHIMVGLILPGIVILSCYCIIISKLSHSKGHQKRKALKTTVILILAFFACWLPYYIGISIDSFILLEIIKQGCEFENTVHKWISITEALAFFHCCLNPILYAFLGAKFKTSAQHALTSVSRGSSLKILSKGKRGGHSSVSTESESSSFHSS

On to `CC(C)C[C@@H](N)C(=O)N[C@@H](CC(C)C)C(=O)N[C@@H](CCCNC(=N)N)C(=O)N[C@@H](Cc1c[nH]c2ccccc12)C(=O)N[C@@H](CO)C(=O)N[C@@H](CCCNC(=N)N)C(=O)N[C@@H](CCCCN)C(=O)N[C@@H](CC(C)C)C(=O)N1CCC[C@H]1C(=O)N[C@@H](CSSC[C@H](NC(=O)[C@@H]1CCCN1C(=O)[C@H](CC(C)C)NC(=O)[C@H](CCCCN)NC(=O)[C@H](CCCNC(=N)N)NC(=O)[C@H](CO)NC(=O)[C@H](Cc1c[nH]c2ccccc12)NC(=O)[C@H](CCCNC(=N)N)NC(=O)[C@H](CC(C)C)NC(=O)[C@H](N)CC(C)C)C(=O)N[C@H](C(=O)N[C@@H](CO)C(=O)N[C@@H](CCCCNC(=O)CN1CCN(CC(=O)O)CCN(CC(=O)O)CCN(CC(=O)O)CC1)C(=O)O)C(C)C)C(=O)N[C@H](C(=O)N[C@@H](CO)C(=O)N[C@@H](CCCCNC(=O)CN1CCN(CC(=O)O)CCN(CC(=O)O)CCN(CC(=O)O)CC1)C(=O)O)C(C)C` [^natLu-6 dimer, metal not drawn], for which the IC50 stood at 763 ± 135 nM in series [1] and 662 ± 160 nM in series [2].
The corresponding values for `CC[C@H](C)[C@H](N)C(=O)N[C@@H](CC(C)C)C(=O)N[C@@H](CCCNC(=N)N)C(=O)N[C@@H](Cc1c[nH]c2ccccc12)C(=O)N[C@@H](CO)C(=O)N[C@@H](CCCNC(=N)N)C(=O)N[C@@H](CCCCN)C(=O)N[C@@H](CC(C)C)C(=O)N1CCC[C@H]1C(=O)N[C@@H](CSSC[C@H](NC(=O)[C@@H]1CCCN1C(=O)[C@H](CC(C)C)NC(=O)[C@H](CCCCN)NC(=O)[C@H](CCCNC(=N)N)NC(=O)[C@H](CO)NC(=O)[C@H](Cc1c[nH]c2ccccc12)NC(=O)[C@H](CCCNC(=N)N)NC(=O)[C@H](CC(C)C)NC(=O)[C@@H](N)[C@@H](C)CC)C(=O)N[C@H](C(=O)N[C@@H](CO)C(=O)N[C@@H](CCCCNC(=O)CN1CCN(CC(=O)O)CCN(CC(=O)O)CCN(CC(=O)O)CC1)C(=O)O)C(C)C)C(=O)N[C@H](C(=O)N[C@@H](CO)C(=O)N[C@@H](CCCCNC(=O)CN1CCN(CC(=O)O)CCN(CC(=O)O)CCN(CC(=O)O)CC1)C(=O)O)C(C)C` [^natLu-1 dimer, metal not drawn] are 225 ± 111 nM and 122 ± 63 nM.
The corresponding values for `CCCCCCCCCCCCCCCC(=O)NCCCC[C@H](NC(=O)[C@H](CCCCN)NC(=O)[C@H](CO)NC(=O)[C@H](Cc1c[nH]c2ccccc12)NC(=O)[C@H](CCCNC(=N)N)NC(=O)[C@@H](NC(=O)[C@@H](N)[C@@H](C)CC)C(C)C)C(=O)N[C@H](C(=O)N1CCC[C@H]1C(=O)N[C@@H](CS)C(=O)N[C@H](C(=O)N[C@@H](CO)C(=O)N[C@@H](CCCCNC(=O)CN1CCN(CC(=O)O)CCN(CC(=O)O)CCN(CC(=O)O)CC1)C(=O)O)C(C)C)C(C)C` [ligand-8, I^1VRWSKK^7(Pal)VPCS^12K(DOTA)] (H-IVRWSKK(Palmitoyl)VPCVSK(DOTA)-OH; N-terminus and C-terminus assumed) are 15 ± 5 nM and 4 ± 2 nM.
For the compound `CC[C@@H](C)[C@@H](N)C(=O)N[C@@H](CC(C)C)C(=O)N[C@@H](CCCNC(=N)N)C(=O)N[C@@H](Cc1c[nH]c2ccccc12)C(=O)N[C@@H](CO)C(=O)N[C@@H](CCCNC(=N)N)C(=O)N[C@@H](CCCCN)C(=O)N[C@@H](CCCCNC(=O)CN1CCN(CC(=O)O)CCN(CC(=O)O)CCN(CC(=O)O)CC1)C(N)=O` [^68Ga-7, metal not drawn] (H-[dI]LRWSRKK(DOTA)-NH2; N-terminus assumed), the “visualization of CXCR4-expressing tumor xenograft by imaging” value in series [3] is “visualized the CXCR4-expressing tumor xenograft”. Besides, in series [4], the uptake in adrenal was 2.69 ± 0.94 % IA/g, the uptake in femur is on record as 1.29 ± 0.43 % IA/g, the uptake in heart is listed as 0.25 ± 0.09 % IA/g and the uptake in intestine turned out to be 0.59 ± 0.18 % IA/g. In series [4], this compound registered an uptake in lung of 1.78 ± 0.81 % IA/g, an uptake in muscle of 0.44 ± 0.26 % IA/g, an uptake in pancreas of 0.20 ± 0.11 % IA/g and an uptake in spleen of 0.85 ± 0.29 % IA/g. Moreover, in series [4], the uptake in stomach worked out at 0.41 ± 0.16 % IA/g.
In the case of `CC[C@H](C)[C@H](N)C(=O)N[C@@H](CC(C)C)C(=O)N[C@@H](CCCNC(=N)N)C(=O)N[C@@H](Cc1c[nH]c2ccccc12)C(=O)N[C@@H](CO)C(=O)N[C@@H](CCCNC(=N)N)C(=O)N[C@@H](CCCCN)C(=O)N[C@@H](CC(C)C)C(=O)N1CCC[C@H]1C(=O)N[C@@H](CO)C(=O)N[C@H](C(=O)N[C@@H](CO)C(=O)N[C@@H](CCCCNC(=O)CN1CCN(CC(=O)O)CCN(CC(=O)O)CCN(CC(=O)O)CC1)C(=O)O)C(C)C` [^natLu-2, metal not drawn] (H-ILRWSRKLPSVSK(DOTA)-OH; N-terminus and C-terminus assumed), the IC50 in series [1] turned out to be 122 ± 45 nM.
